# Measured values from patent US20210187002A1 (OSAKA UNIVERSITY, published 2021).
# Columns and labels:
# [1] = molecular target: leukocyte immunoglobulin-like receptor subfamily B member 1 (LILRB1) protein (human, UniProt Q8NHL6 24-650); assay: flow cytometry on LILRB1 protein-expressing 293T cells, APC-labeled anti-His antibody
# [2] = molecular target: T1, fusion protein containing the conserved region of RIFIN (PF3D7_1254800) and the transmembrane and … (Plasmodium falciparum); assay: flow cytometry on transfected 293T cells
# T1 construct: also called fusion protein containing a conserved region
Binder,binding result [1],binding result [2]
"recombinant RIFIN protein (variable region of PF3D7_1254800 with His tag) (ligand, Used in solution, on plates and on latex or Luminex beads; also called RIFIN-1; RIFIN beads) YETINAFIAKTIEELEGIPGITKLFGAKISQFVTPAVFRKPMSLVETILSEKKKLCLCAANKNELLCRGMNPNVPETLPKKIEVAVNEVLSSVNDTWATATTPTTFFTNP",binds,
"LILRB1-Fc fusion protein (Fc fusion, Made in 293T cells and purified with Protein A. For flow cytometry it was complexed with an APC-labeled anti IgG Fc antibody; not shown: Fc part) GHLPKPTLWAEPGSVITQGSPVTLRCQGGQETQEYRLYREKKTAPWITRIPQELVKKGQFPIPSITWEHTGRYRCYYGSDTAGRSESSDPLELVVTGAYIKPTLSAQPSPVVNSGGNVTLQCDSQVAFDGFILCKEGEDEHPQCLNSQPHARGSSRAIFSVGPVSPSRRWWYRCYAYDSNSPYEWSLPSDLLELLVLGVSKKPSLSVQPGPIVAPEETLTLQCGSDAGYNRFVLYKDGERDFLQLAGAQPQAGLSQANFTLGPVSRSYGGQYRCYGAHNLSSEWSAPSDPLDILIAGQFYDRVSLSVQPGPTVASGENVTLLCQSQGWMQTFLLTKEGAADDPWRLRSTYQSQKYQAEFPMGPVTSAHAGTYRCYGSQSSKPYLLTHPSDPLELVVSGPSGGPSSPTTGPTSTSAGPEDQPLTPTGSDPQSGLGRHLGV",,no binding
